In paper PMC12255766 (2025) one finds screen value data, which are given here for two variants.

First the molecules themselves.
B1: Venus::LAT-1 (C. elegans latrophilin homolog LAT-1 fused to Venus) [C. elegans] / Nluc::LAG-2 (C. elegans DSL protein/Notch ligand LAG-2 fused to Nanoluciferase) [C. elegans] (parent complex)
chain 1: SNKPTTDESGTISHTICDGEAAELSCPAGKVISIVLGNYGRFSVAVCLPDNDIVPSNINCQNHKTKSILEKKCNGDSMCYFTVDKKTFTEDPCPNTPKYLEVKYNCVVPATTTTTTTTTSTTTTDSSLIVDEEEEAQKDALNSDVIKPVKKKEDVFCSATNRRGVNWQNTKSGTTSSAPCPEGSSGKQLWACTEEGQWLTEFPNSAGCESNWISSRNSVLSGVISSEDVSGLPEFLRNLGSETRRPMVGGDLPKVLHLLEKTVNVIAEESWAYQHLPLSNKGAVEVMNYMLRNQEIWGSWDVTKRKEFASRFILAAEKAMVASAKGMMTSAESNVIVQPAITVEISHKIKMSSQPTDYILFPSAALWNGQNVDNVNIPRDAILKINKDETQVFFSSFDNLGAQMTPSDVTVAIAGTDQTEVRKRRVVSRIVGASLIENGKERRVENLTQPVRITFYHKESSVRHLSNPTCVWWNHHELKWKPSGCKLSYHNKTMTSCDCTHLTHFAVLMDVRGHDLNEIDQTLLTLLTYVGCIISIICLLLTFFAYLIFSRNGGDRVFIHENLCLSLAIAEITFLAGITRTEDSLQCGIIAVALMYMFLSALTWMLLEGYHIHRMLTEVFPSDPRRFTYLLVGYIPPAIITLVAYLYNSDGFGTPDHCWLSTQNNFIWFFAGPACFIFCANSLVLVKTLCTVYQHTSGGYLPCRHDVDSGRSIRNWVKGSLALASLLGVTWIFGLFWVEDSRSIVMAYVFTISNSLQGLFIFLFHVVFAEKMRKDVGHWMYRRGCGGSSNSSPNHKRHNVQRDLMSPGVNSSTGSDFLYNTNDKYLTNSDTTNRLVYNGIMNHPNQMSVYQQHPHHQIYEQQPGTYDYATIAYGDMMPGHRVAAPPAYQRLAVAEGRYGSQHQLYQGWHHRPPPEFSPPPPPLSTGPPNSRHYGTGSSGRRPPSSKMSDDSAYSDGSSSMLTTEVTPQGQTVLRIDLNKPSMYCQDL
chain 2: QARVEVHQEFISSKRVSVRFEIVTESHSPNRPVTFDLFPRGPKTNIILLDTFNPVFNFSIQLVQPFTGQPLGDRIYRKVQFSGTNQPWINDTFTTTSGISLSVATEVTCARNYFGNRCENFCDAHLAKAARKRCDAMGRLRCDIGWMGPHCGQAVDPRKCSCENDGICVSSMIHPSQPNQTSSNEQLICECTNGFTGTRCEIFGFNQFQLTAPRPDACSVKDACLNGAKCFPNGPKVFCSCAVGFIGEFCEISLTTTTPTTVEITVSTSGYSSAVYITVALFVIFSIIIGCFKYKFKPMRQQALARGQVPEPYKMPETKSMLIDPEASEAQKKVFTIEGSVQKIDEEVRYTSAPRKYESNNEYAVIQKSTPPPPSLSPPSIPACHYV

The experiment covers variants of B1. Briefly: NanoBRET; HEK293 cells; Venus::LAT-1 acceptor, Nluc::LAG-2 donor; parent: 0.0042; read off a plot. On the technique in general: In BRET a luciferase serves as donor, and the signal depends on an acceptor being close.
For the variant chain 1 L36A, chain 1 F42A, chain 1 D50A, chain 1 D52A, chain 1 V54A, the screen value was approximately 0.0053.
The result for chain 1 Q354A, chain 1 P355A, chain 1 D357A, chain 1 Y358A, chain 1 L360A, chain 1 L366A, chain 1 W367A reads approximately 0.0025.
